Source: patent US20110028688A1 (published 2011)

T1: human OX40 receptor (hOX40), residues 29-170 (human, UniProt P43489 29-170, in the competition ELISA only: biotinylated with a 4 fold molar excess of biotin-NHS-LC (sites not given))
T1 construct: Secreted from High Five insect cells (baculovirus), His-tag cleaved; also called hOX40 receptor; monomeric hOX40
T1 sequence: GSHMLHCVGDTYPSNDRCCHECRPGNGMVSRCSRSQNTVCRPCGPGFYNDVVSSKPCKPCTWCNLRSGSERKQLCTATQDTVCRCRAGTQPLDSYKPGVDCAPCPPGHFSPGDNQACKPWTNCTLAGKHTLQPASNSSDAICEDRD

T2: human OX40 receptor (hOX40), residues 29-170 (human, UniProt P43489 29-170, biotinylated with biotin-NHS-LC in the competition ELISA (Table II); not biotinylated in the crystals (Tables 6 and 7))
T2 construct: Monomeric soluble receptor fragment; also called hOX40Receptor; HOX40 receptor
T2 sequence: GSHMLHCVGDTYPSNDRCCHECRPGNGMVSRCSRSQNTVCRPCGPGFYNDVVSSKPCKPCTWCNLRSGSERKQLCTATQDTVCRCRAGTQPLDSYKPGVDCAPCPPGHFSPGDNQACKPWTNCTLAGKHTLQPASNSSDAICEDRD


Columns and labels:
[1] = target: T1, human OX40 receptor (hOX40), residues …; assay: competition ELISA, alanine mutant against the N90D, N114D reference
[2] = target: T2, human OX40 receptor (hOX40), residues …; assay: competition ELISA; relative to hOX40L N90D, N114D
[3] = target: T2, human OX40 receptor (hOX40), residues …; assay: competition ELISA; hOX40L in solution with biotinylated hOX40, unbound receptor captured on plate-coated mOX40L (competitor)
[4] = target: T2, human OX40 receptor (hOX40), residues …; assay: competition ELISA; mutant in solution with biotinylated hOX40, unbound receptor captured on mOX40L-coated plate (N.D.: no detectable competition)
[5] = target: T1, human OX40 receptor (hOX40), residues …; assay: competition ELISA (biotinylated hOX40 pre-incubated with mutant, unbound receptor captured on mOX40L-coated plate)

Row | Fold-change in IC50 (Mutant/N90D, N114D) [2] [fold] | IC50 [3] [nM] | Binder | also measured
1 | 2.2 | 139 | human OX40L T144A in the N90D, N114D background, residues 51-183 (ligand, Properly assembled trimer by size exclusion chromatography) GSHMQVSHRYPRIQSIKVQFTEYKKEKGFILTSQKEDEIMKVQDNSVIINCDGFYLISLKGYFSQEVDISLHYQKDEEPLFQLKKVRSVNSLMVASLAYKDKVYLNVTTDNTSLDDFHVNGGELILIHQNPGEFCVL | 
2 | 3 | 186 | human OX40L E123A in the N90D, N114D background, residues 51-183 (ligand, Properly assembled trimer by size exclusion chromatography) GSHMQVSHRYPRIQSIKVQFTEYKKEKGFILTSQKEDEIMKVQDNSVIINCDGFYLISLKGYFSQEVDISLHYQKDAEPLFQLKKVRSVNSLMVASLTYKDKVYLNVTTDNTSLDDFHVNGGELILIHQNPGEFCVL | 
3 | 8.6 | 537 | human OX40L Q80A in the N90D, N114D background, residues 51-183 (ligand, Properly assembled trimer by size exclusion chromatography) GSHMQVSHRYPRIQSIKVQFTEYKKEKGFILTSAKEDEIMKVQDNSVIINCDGFYLISLKGYFSQEVDISLHYQKDEEPLFQLKKVRSVNSLMVASLTYKDKVYLNVTTDNTSLDDFHVNGGELILIHQNPGEFCVL | 
4 | 6.9 | 425 | human OX40L D162A in the N90D, N114D background, residues 51-183 (ligand, Properly assembled trimer by size exclusion chromatography) GSHMQVSHRYPRIQSIKVQFTEYKKEKGFILTSQKEDEIMKVQDNSVIINCDGFYLISLKGYFSQEVDISLHYQKDEEPLFQLKKVRSVNSLMVASLTYKDKVYLNVTTDNTSLDAFHVNGGELILIHQNPGEFCVL | 

The next lines start with the binder.

Row | Binder | Fold-change in IC50 (Mutant/N90D, N114D) [2] [fold] | IC50 [3] [nM] | also measured
5 | human OX40L residues 51-183 N90D, N114D, D162A (ligand, Single alanine mutant in the N90D, N114D background) GSHMQVSHRYPRIQSIKVQFTEYKKEKGFILTSQKEDEIMKVQDNSVIINCDGFYLISLKGYFSQEVDISLHYQKDEEPLFQLKKVRSVNSLMVASLTYKDKVYLNVTTDNTSLDAFHVNGGELILIHQNPGEFCVL |  |  | fold change in IC50 [1]: ≥ 3 fold
6 | human OX40L (hOX40L), wild type, residues 51-183 (ligand, Homotrimer; also called WT; OX40 ligand) GSHMQVSHRYPRIQSIKVQFTEYKKEKGFILTSQKEDEIMKVQNNSVIINCDGFYLISLKGYFSQEVNISLHYQKDEEPLFQLKKVRSVNSLMVASLTYKDKVYLNVTTDNTSLDDFHVNGGELILIHQNPGEFCVL | 2.2 | 139 | 
7 | human OX40L F180A in the N90D, N114D background, residues 51-183 (ligand, Properly assembled trimer by size exclusion chromatography) GSHMQVSHRYPRIQSIKVQFTEYKKEKGFILTSQKEDEIMKVQDNSVIINCDGFYLISLKGYFSQEVDISLHYQKDEEPLFQLKKVRSVNSLMVASLTYKDKVYLNVTTDNTSLDDFHVNGGELILIHQNPGEACVL |  |  | binding result [4]: no binding
8 | human OX40L residues 51-183 N90D, N114D, Q80A (ligand, Single alanine mutant in the N90D, N114D background) GSHMQVSHRYPRIQSIKVQFTEYKKEKGFILTSAKEDEIMKVQDNSVIINCDGFYLISLKGYFSQEVDISLHYQKDEEPLFQLKKVRSVNSLMVASLTYKDKVYLNVTTDNTSLDDFHVNGGELILIHQNPGEFCVL |  |  | fold change in IC50 [1]: ≥ 3 fold
9 | human OX40L residues 51-183 N90D, N114D, N166A (ligand, Single alanine mutant in the N90D, N114D background) GSHMQVSHRYPRIQSIKVQFTEYKKEKGFILTSQKEDEIMKVQDNSVIINCDGFYLISLKGYFSQEVDISLHYQKDEEPLFQLKKVRSVNSLMVASLTYKDKVYLNVTTDNTSLDDFHVAGGELILIHQNPGEFCVL |  |  | binding result [5]: no binding
10 | human OX40L residues 51-183 N90D, N114D, F180A (ligand, Single alanine mutant in the N90D, N114D background) GSHMQVSHRYPRIQSIKVQFTEYKKEKGFILTSQKEDEIMKVQDNSVIINCDGFYLISLKGYFSQEVDISLHYQKDEEPLFQLKKVRSVNSLMVASLTYKDKVYLNVTTDNTSLDDFHVNGGELILIHQNPGEACVL |  |  | binding result [5]: no binding
11 | human OX40L (hOX40L) N90D, N114D double glycosylation mutant, residues 51-183 (ligand, Homotrimer; also called hOX40Ligand; hOX40L double glycosylation mutant) GSHMQVSHRYPRIQSIKVQFTEYKKEKGFILTSQKEDEIMKVQDNSVIINCDGFYLISLKGYFSQEVDISLHYQKDEEPLFQLKKVRSVNSLMVASLTYKDKVYLNVTTDNTSLDDFHVNGGELILIHQNPGEFCVL |  | 62 | 
12 | human OX40L N166A in the N90D, N114D background, residues 51-183 (ligand, Properly assembled trimer by size exclusion chromatography) GSHMQVSHRYPRIQSIKVQFTEYKKEKGFILTSQKEDEIMKVQDNSVIINCDGFYLISLKGYFSQEVDISLHYQKDEEPLFQLKKVRSVNSLMVASLTYKDKVYLNVTTDNTSLDDFHVAGGELILIHQNPGEFCVL |  |  | binding result [4]: no binding
